In US20160002331A1:
pKd: −log10 of the molar value. Where two headings read alike, the source gives them in different places.

How the values were obtained:
[1] = target: full-length human Notch1 expressed on the cell surface (human) (UniProt P46531); experiment: cell-based or functional assay
[2] = target: full-length human Notch1 expressed on the cell surface (human) (UniProt P46531); experiment: cell-based or functional assay; remark: listed apart in the source
[3] = target: full-length mouse Notch1 expressed on the cell surface of U-2 OS cells (mouse) (UniProt Q01705); experiment: cell-based or functional assay
[4] = target: human Notch1 NRR_Avi_His recombinant protein (human) (UniProt P46531); experiment: SPR (Biacore T100), antibody captured by anti-human IgG-Fc, NRR_Avi_His as analyte, 1:1 Langmuir model
[5] = target: Notch1 receptor with L1601P mutation (MOLT-4 cells) (UniProt P46531); experiment: cell-based or functional assay
[6] = target: Notch1 receptor with L1594P/D1610V mutations (DND-41 cells) (UniProt P46531); experiment: cell-based or functional assay
[7] = target: Notch1 receptor with a 17 amino acid insertion at position 1740 (Jurkat cells) (UniProt P46531); experiment: cell-based or functional assay
[8] = target: Notch1 receptor with L1575P mutation (HPB-ALL cells) (UniProt P46531); experiment: cell-based or functional assay
[9] = target: Notch1 receptor with a 12 amino acid insertion at position 1595 (CCRF-CEM cells) (UniProt P46531); experiment: cell-based or functional assay
[10] = target: Notch1 receptor with L1594P mutation (ALL-SIL cells) (UniProt P46531); experiment: cell-based or functional assay
[11] = target: full-length mouse Notch1 expressed on the cell surface of U-2 OS cells (mouse) (UniProt Q01705); experiment: cell-based or functional assay; remark: listed apart in the source

Chain of Notch1 receptor with L1575P mutation (HPB-ALL cells) (P46531 19-2555 L1593P limits assumed): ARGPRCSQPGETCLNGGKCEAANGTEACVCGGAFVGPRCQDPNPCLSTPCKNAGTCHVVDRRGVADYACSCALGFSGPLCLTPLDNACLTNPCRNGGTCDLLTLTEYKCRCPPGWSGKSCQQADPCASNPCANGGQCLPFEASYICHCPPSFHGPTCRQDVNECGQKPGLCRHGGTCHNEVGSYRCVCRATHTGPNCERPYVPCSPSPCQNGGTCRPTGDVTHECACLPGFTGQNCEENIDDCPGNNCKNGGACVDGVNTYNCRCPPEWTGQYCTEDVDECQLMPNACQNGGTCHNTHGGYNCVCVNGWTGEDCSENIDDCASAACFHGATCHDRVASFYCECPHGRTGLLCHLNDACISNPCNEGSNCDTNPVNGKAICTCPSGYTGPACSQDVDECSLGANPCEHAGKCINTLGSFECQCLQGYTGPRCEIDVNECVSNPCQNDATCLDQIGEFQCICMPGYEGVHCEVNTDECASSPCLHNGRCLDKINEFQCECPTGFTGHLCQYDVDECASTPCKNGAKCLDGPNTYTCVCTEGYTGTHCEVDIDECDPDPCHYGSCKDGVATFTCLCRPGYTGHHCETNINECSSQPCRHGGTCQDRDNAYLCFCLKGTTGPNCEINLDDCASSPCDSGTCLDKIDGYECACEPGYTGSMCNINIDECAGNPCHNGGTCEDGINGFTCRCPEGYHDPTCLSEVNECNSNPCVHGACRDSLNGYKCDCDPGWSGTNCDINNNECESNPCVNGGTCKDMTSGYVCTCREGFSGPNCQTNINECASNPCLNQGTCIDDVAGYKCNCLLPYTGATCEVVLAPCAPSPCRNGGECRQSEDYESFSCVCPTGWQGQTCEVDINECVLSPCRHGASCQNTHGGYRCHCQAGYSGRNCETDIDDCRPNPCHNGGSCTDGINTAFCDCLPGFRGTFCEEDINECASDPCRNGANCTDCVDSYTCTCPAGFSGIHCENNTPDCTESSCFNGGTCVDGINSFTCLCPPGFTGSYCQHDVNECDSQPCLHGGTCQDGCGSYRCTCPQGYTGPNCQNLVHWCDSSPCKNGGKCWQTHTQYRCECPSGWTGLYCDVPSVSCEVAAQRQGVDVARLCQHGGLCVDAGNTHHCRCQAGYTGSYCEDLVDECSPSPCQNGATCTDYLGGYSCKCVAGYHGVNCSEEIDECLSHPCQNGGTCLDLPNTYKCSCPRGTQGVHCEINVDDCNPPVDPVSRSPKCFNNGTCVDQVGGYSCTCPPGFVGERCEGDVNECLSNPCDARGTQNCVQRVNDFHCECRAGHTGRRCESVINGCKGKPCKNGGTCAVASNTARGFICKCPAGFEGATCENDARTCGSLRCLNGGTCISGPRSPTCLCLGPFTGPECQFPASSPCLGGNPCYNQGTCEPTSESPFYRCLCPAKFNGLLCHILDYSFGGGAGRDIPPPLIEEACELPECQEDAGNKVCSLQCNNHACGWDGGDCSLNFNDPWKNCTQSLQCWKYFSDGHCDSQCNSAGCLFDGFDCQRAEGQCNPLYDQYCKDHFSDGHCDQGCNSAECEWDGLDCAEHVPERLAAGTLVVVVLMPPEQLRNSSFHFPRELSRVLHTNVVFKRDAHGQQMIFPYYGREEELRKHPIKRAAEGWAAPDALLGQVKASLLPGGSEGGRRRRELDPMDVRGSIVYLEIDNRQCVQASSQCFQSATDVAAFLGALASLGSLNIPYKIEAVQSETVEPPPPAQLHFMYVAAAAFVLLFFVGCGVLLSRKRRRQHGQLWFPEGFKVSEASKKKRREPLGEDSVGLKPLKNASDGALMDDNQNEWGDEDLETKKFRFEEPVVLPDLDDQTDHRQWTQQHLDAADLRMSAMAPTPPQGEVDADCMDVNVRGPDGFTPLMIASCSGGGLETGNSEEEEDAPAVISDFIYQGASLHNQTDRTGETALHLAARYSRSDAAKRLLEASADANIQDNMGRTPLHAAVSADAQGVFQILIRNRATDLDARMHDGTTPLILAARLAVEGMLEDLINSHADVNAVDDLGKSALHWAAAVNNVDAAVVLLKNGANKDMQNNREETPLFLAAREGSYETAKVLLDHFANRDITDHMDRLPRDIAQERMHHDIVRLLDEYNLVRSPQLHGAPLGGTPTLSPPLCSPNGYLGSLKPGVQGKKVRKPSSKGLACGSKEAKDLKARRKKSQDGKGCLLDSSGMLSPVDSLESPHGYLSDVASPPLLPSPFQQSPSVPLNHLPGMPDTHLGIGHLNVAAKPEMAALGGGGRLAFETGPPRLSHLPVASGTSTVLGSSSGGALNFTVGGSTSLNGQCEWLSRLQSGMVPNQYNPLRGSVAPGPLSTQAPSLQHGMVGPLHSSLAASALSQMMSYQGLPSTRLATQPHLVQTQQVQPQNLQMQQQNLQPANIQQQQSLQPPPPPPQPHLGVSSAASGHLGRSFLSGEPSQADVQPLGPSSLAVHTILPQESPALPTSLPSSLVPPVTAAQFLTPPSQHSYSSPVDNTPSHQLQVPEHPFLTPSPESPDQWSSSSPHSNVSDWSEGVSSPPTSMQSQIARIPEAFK
Chain of Notch1 receptor with a 12 amino acid insertion at position 1595 (CCRF-CEM cells) (P46531 other isoform, or with tags, fused parts or gaps limits assumed): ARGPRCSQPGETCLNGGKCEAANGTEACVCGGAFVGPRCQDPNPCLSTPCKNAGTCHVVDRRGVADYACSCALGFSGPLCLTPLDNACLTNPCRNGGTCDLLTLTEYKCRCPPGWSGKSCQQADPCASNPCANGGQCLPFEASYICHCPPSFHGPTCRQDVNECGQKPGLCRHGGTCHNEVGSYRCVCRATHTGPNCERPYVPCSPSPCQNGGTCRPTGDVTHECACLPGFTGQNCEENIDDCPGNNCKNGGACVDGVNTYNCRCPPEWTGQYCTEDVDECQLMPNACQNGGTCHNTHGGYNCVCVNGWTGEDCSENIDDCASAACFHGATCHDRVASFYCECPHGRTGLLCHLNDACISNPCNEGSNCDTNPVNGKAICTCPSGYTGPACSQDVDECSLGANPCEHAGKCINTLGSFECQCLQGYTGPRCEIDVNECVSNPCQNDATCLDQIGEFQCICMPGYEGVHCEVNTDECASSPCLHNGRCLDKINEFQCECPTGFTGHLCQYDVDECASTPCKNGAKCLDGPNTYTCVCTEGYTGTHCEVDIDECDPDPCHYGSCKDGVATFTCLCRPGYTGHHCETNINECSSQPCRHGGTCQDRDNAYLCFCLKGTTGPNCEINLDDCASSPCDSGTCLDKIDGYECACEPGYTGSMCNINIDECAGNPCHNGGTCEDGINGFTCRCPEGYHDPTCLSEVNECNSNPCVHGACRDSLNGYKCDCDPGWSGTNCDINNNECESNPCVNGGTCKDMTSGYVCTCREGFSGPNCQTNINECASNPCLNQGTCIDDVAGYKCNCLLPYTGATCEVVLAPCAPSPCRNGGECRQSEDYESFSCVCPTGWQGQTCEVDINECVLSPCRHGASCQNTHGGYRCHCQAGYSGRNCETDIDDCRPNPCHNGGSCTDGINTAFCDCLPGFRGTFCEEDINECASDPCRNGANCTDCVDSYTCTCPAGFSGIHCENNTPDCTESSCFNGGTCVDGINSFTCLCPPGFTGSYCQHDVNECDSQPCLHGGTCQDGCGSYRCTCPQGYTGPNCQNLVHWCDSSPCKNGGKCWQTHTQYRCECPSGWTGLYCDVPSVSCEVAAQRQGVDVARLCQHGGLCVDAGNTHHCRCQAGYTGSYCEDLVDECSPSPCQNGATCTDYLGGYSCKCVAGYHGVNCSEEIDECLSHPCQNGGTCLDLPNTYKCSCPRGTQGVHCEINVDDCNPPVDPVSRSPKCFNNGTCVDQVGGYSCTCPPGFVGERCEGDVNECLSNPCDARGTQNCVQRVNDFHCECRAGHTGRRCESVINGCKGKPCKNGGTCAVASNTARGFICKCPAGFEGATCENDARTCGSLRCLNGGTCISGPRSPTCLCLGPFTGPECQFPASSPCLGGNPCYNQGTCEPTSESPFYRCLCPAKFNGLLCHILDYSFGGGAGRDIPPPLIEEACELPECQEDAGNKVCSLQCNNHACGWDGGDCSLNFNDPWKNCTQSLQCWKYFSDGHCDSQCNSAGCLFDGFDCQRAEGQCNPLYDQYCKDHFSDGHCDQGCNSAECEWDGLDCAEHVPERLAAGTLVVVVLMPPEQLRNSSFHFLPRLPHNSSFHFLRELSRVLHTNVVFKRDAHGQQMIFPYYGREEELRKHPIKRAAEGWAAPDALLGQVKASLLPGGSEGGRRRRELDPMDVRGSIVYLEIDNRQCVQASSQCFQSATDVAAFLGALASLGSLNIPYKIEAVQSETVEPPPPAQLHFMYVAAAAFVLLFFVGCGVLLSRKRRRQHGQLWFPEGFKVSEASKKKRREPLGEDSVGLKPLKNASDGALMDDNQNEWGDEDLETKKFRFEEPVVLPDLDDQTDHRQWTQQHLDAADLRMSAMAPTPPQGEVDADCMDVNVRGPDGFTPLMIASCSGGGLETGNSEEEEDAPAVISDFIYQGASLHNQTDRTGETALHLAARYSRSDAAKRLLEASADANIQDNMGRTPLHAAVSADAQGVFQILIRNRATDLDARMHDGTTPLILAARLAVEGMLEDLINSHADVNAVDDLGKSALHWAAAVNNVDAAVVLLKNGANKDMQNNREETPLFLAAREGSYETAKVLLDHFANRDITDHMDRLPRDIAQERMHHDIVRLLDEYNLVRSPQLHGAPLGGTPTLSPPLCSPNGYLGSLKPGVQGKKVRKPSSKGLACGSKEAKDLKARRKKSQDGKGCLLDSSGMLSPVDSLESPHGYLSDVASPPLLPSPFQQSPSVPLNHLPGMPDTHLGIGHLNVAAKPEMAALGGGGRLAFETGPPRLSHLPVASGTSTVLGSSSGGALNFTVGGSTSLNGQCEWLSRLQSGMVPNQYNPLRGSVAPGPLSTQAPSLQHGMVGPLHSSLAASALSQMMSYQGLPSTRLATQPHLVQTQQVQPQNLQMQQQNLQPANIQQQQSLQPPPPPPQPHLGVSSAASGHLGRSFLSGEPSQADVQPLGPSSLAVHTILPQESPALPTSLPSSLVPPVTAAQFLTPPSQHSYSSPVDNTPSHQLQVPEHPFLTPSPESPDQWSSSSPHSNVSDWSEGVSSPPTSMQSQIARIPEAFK
Chain of Notch1 receptor with L1601P mutation (MOLT-4 cells) (P46531 19-2555, stated change not applied): as the sequence (P46531 19-2555 L1593P limits assumed) above, with P1575L counted along it
Chain of Notch1 receptor with L1594P mutation (ALL-SIL cells) (P46531 19-2555, stated change not applied): as the sequence (P46531 19-2555 L1593P limits assumed) above, with P1575L counted along it

control anti-E. tenella antibody
Firefly/Renilla Luminescence, human Notch1 reporter cells + 5 mM EDTA, 0.01 µg/mL antibody (Firefly/Renilla ratio) [1]: 267
Firefly/Renilla Luminescence, human Notch1 reporter cells + 5 mM EDTA, 0.1 µg/mL antibody (Firefly/Renilla ratio) [1]: 299
Firefly/Renilla Luminescence, human Notch1 reporter cells + 5 mM EDTA, 1 µg/mL antibody (Firefly/Renilla ratio) [1]: 278
Firefly/Renilla Luminescence, human Notch1 reporter cells + 5 mM EDTA, 10 µg/mL antibody (Firefly/Renilla ratio) [1]: 257
Firefly/Renilla Luminescence, human Notch1 reporter cells + 5 mM EDTA, 30 µg/mL antibody (Firefly/Renilla ratio) [1]: 229

A2 antibody (Wu, Y. et al., Nature 464:1052-1057, 2010)
Neutralization activity (Human RGA), % Inhibition [2]: 99.1%
Neutralization activity (Human RGA), IC50 [2]: 0.27 nM
Neutralization activity (murine RGA), % Inhibition [3]: 82%
Neutralization activity (murine RGA), IC50 [3]: 0.36 nM
pKd [4]: 8.53
Normalized Notch1^ICD level, MOLT-4 cells, 0.01 µg/ml antibody (relative to untreated) [5]: 0.962
Normalized Notch1^ICD level, MOLT-4 cells, 0.1 µg/ml antibody (relative to untreated) [5]: 0.644
Normalized Notch1^ICD level, MOLT-4 cells, 10 µg/ml antibody (relative to untreated) [5]: 0.043
Firefly/Renilla Luminescence, human Notch1 reporter cells + 5 mM EDTA, 0.01 µg/mL antibody (Firefly/Renilla ratio) [1]: 312
Firefly/Renilla Luminescence, human Notch1 reporter cells + 5 mM EDTA, 0.1 µg/mL antibody (Firefly/Renilla ratio) [1]: 172
Firefly/Renilla Luminescence, human Notch1 reporter cells + 5 mM EDTA, 1 µg/mL antibody (Firefly/Renilla ratio) [1]: 89.9
Firefly/Renilla Luminescence, human Notch1 reporter cells + 5 mM EDTA, 10 µg/mL antibody (Firefly/Renilla ratio) [1]: 63.5
Firefly/Renilla Luminescence, human Notch1 reporter cells + 5 mM EDTA, 30 µg/mL antibody (Firefly/Renilla ratio) [1]: 55.2
IC50, Notch1 signaling inhibition co-culture reporter assay [1]: 0.18 nM
IC50, human Notch1 reporter gene co-culture assay (DLL4-HEK293) [1]: 0.31 nM
Maximal Inhibition (%), Notch1 signaling inhibition co-culture reporter assay [1]: 97.7%
Neutralization activity (Human RGA), % Inhibition (maximal) [1]: 100%
Neutralization activity (Human RGA), IC50 [1]: 0.3 nM
Normalized Notch1^ICD level, CCD1076SK fibroblasts on DLL4, 0.001 µg/ml antibody (relative to untreated) [1]: 0.748
Normalized Notch1^ICD level, CCD1076SK fibroblasts on DLL4, 0.01 µg/ml antibody (relative to untreated) [1]: 0.402
Normalized Notch1^ICD level, CCD1076SK fibroblasts on DLL4, 0.1 µg/ml antibody (relative to untreated) [1]: 0.003
Normalized Notch1^ICD level, CCD1076SK fibroblasts on DLL4, 1 µg/ml antibody (relative to untreated) [1]: 0.003
Normalized Notch1^ICD level, CCD1076SK fibroblasts on DLL4, 10 µg/ml antibody (relative to untreated) [1]: 0.006
Normalized Notch1^ICD level, DND-41 cells, 0.001 µg/ml antibody (relative to untreated) [6]: 0.787
Normalized Notch1^ICD level, DND-41 cells, 0.01 µg/ml antibody (relative to untreated) [6]: 0.84
Normalized Notch1^ICD level, DND-41 cells, 0.1 µg/ml antibody (relative to untreated) [6]: 0.479
Normalized Notch1^ICD level, DND-41 cells, 1 µg/ml antibody (relative to untreated) [6]: 0.199
Normalized Notch1^ICD level, DND-41 cells, 10 µg/ml antibody (relative to untreated) [6]: 0.114
Normalized Notch1^ICD level, Jurkat cells, 0.001 µg/ml antibody (relative to untreated) [7]: 1.2
Normalized Notch1^ICD level, Jurkat cells, 0.01 µg/ml antibody (relative to untreated) [7]: 1.17
Normalized Notch1^ICD level, Jurkat cells, 0.1 µg/ml antibody (relative to untreated) [7]: 0.983
Normalized Notch1^ICD level, Jurkat cells, 1 µg/ml antibody (relative to untreated) [7]: 1.15
Normalized Notch1^ICD level, Jurkat cells, 10 µg/ml antibody (relative to untreated) [7]: 1.59
IC50, MTS viability assay of HPB-ALL leukemia cells [8]: 1.85 nM
Normalized Notch1^ICD level, HPB-ALL cells, 0.001 µg/ml antibody (relative to untreated) [8]: 0.852
Normalized Notch1^ICD level, HPB-ALL cells, 0.01 µg/ml antibody (relative to untreated) [8]: 1.15
Normalized Notch1^ICD level, HPB-ALL cells, 0.1 µg/ml antibody (relative to untreated) [8]: 0.33
Normalized Notch1^ICD level, HPB-ALL cells, 1 µg/ml antibody (relative to untreated) [8]: 0.038
Normalized Notch1^ICD level, HPB-ALL cells, 10 µg/ml antibody (relative to untreated) [8]: 0.041
Normalized Notch1^ICD level, CCRF-CEM cells, 0.001 µg/ml antibody (relative to untreated) [9]: 1.12
Normalized Notch1^ICD level, CCRF-CEM cells, 0.01 µg/ml antibody (relative to untreated) [9]: 1.28
Normalized Notch1^ICD level, CCRF-CEM cells, 0.1 µg/ml antibody (relative to untreated) [9]: 0.424
Normalized Notch1^ICD level, CCRF-CEM cells, 1 µg/ml antibody (relative to untreated) [9]: 0.048
Normalized Notch1^ICD level, CCRF-CEM cells, 10 µg/ml antibody (relative to untreated) [9]: 0.027
Normalized Notch1^ICD level, ALL-SIL cells, 0.001 µg/ml antibody (relative to untreated) [10]: 1.56
Normalized Notch1^ICD level, ALL-SIL cells, 0.01 µg/ml antibody (relative to untreated) [10]: 1.31
Normalized Notch1^ICD level, ALL-SIL cells, 0.1 µg/ml antibody (relative to untreated) [10]: 0.068
Normalized Notch1^ICD level, ALL-SIL cells, 1 µg/ml antibody (relative to untreated) [10]: 0.033
Normalized Notch1^ICD level, ALL-SIL cells, 10 µg/ml antibody (relative to untreated) [10]: 0.043
IC50, mouse Notch1 reporter gene co-culture assay (DLL4-HEK293) [11]: 0.32 nM
Neutralization activity (murine RGA), % Inhibition (maximal) [11]: 86%
Neutralization activity (murine RGA), IC50 [11]: 0.2 nM
